Laboratory results from US20240301086A1 (APTEVO RESEARCH AND DEVELOPMENT, published 2024).

Columns and labels:
[1] = target: T1, human CD3ε in the TCR/CD3 complex on Jurkat cells (human, UniProt P07766 23-207); test: cell-based or functional assay
[2] = target: T2, Full-length Human PSMA (TSC435), on cells (human, UniProt Q04609 1-750); test: flow cytometry on C4-2B cells, PE goat anti-human IgG Fc secondary, MFI (median)
T2 construct: also called CHOK1SV/huPSMA; PSMA on C4-2B, 22RV1, LNCaP, MDA-PCa-2b cells
T2 sequence (Q04609 whole entry): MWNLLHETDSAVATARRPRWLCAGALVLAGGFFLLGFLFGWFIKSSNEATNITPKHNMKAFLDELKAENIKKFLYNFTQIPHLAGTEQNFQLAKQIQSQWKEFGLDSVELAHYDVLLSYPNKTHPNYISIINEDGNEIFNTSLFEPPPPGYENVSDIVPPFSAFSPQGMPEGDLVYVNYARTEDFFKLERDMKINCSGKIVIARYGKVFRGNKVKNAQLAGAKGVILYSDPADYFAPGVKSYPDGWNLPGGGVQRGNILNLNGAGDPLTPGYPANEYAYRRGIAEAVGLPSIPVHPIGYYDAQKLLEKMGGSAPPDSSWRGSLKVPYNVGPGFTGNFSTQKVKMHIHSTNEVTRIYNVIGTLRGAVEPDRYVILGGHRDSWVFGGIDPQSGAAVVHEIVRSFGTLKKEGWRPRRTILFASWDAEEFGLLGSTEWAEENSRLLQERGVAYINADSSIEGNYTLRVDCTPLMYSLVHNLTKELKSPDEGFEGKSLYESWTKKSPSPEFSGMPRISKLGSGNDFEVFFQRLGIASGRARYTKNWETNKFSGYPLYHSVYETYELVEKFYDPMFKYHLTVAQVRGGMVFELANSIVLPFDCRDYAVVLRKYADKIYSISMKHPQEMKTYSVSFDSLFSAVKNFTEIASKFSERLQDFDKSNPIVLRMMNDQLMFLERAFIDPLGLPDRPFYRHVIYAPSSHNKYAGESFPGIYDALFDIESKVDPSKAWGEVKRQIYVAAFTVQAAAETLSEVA

[3] = target: T1, human CD3ε in the TCR/CD3 complex on …; test: flow cytometry, Jurkat cells (approximate calculation)
Protocol: Jurkat and C4-2B cells were labelled at approximately 100,000 cells per well, in 96-well plates, with serial dilutions of bispecific constructs ranging in concentration from of 0.1 to 300 nM, for 30 min on ice. Primary label was followed by washes and incubation with PE-labeled minimum cross species reactive secondary antibody, goat anti-human IgG Fcγ, F(ab′)2 (Jackson Laboratory) for 30 minutes on ice. Washes and incubation were done in staining buffer (PBS with 0.2% BSA and 2 mM EDTA). Cells were collected using an BD™ LSRII or a BD FACSymphony™ flow cytometer (BD Biosciences) and analyzed by FlowJo flow cytometry analysis software. Median fluorescence intensity (MFI) of bound molecules on cells was determined after exclusion of doublets. Results were plotted and nonlinear regression analysis to determine EC50 values was performed using GraphPad Prism 7® graphing and statistics software.
On Jurkat cells (FIG. 11B), a range of binding potencies was observed. […] Swapping the orientation of the CD3-binding domain from VH-VL (PSMA01071) to VL-VH (PSMA01086) further reduced binding to CD3 in the C-terminus. The maximum CD3-binding signal differed between the constructs with N-terminal CD3-binding domain constructs showing the highest maximum binding. However, potency (EC50) and not maximum binding correlated with function, as will be shown in the next example.

[4] = target: T1, human CD3ε in the TCR/CD3 complex on …; test: flow cytometry on Jurkat cells, PE goat anti-human IgG Fc secondary, MFI (median)

T1 sequence (P07766 23-207, one chain of several): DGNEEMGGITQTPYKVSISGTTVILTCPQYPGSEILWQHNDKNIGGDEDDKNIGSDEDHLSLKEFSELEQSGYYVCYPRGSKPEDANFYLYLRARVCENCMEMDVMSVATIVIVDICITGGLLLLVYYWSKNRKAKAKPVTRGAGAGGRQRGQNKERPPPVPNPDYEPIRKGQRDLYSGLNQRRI

fold decrease in T-cell activation and proliferation [1]: ~3 fold
EC50 [2]: 1 nM
fold reduction in binding potency against PSMA01072 [3]: ~200 fold
EC50 [4]: > 204 nM
B1: PSMA01071 Anti PSMA scFv x Fc; Anti PSMA scFv x Fc x Anti CD3 scFv (bispecific antibody)
chain 1: QVQLVQSGAEVKKPGASVKVSCKASGYTFTDYYMHWVRQAPGQGLEWMGYFNPYNDYTRYAQKFQGRVTMTRDTSTSTVYMELSSLRSEDTAVYYCARSDGYYDAMDYWGQGTTVTVSSGGGGSGGGGSGGGGSGGGGSDIQMTQSPSSLSASVGDRVTITCRASKSISKYLAWYQQKPGKAPKLLIHSGSSLESGVPSRFSGSGSGTEFTLTISSLQPDDFATYYCQQHIEYPWTFGQGTKVEIKEPKSSDKTHTCPPCPAPPAAAPSVFLFPPKPKDTLMISRTPEVTCVVVDVSHEDPEVKFNWYVDGVEVHNAKTKPREEQYNSTYRVVSVLTVLHQDWLNGKEYKCAVSNKALPAPIEKTISKAKGQPREPQVYTLPPSRDELTKNQVSLWCLVKGFYPSDIAVEWESNGQPENNYKTTPPVLDSDGSFFLYSKLTVDKSRWQQGNVFSCSVMHEALHNHYTQKSLSLSPG
chain 2: QVQLVQSGAEVKKPGASVKVSCKASGYTFTDYYMHWVRQAPGQGLEWMGYFNPYNDYTRYAQKFQGRVTMTRDTSTSTVYMELSSLRSEDTAVYYCARSDGYYDAMDYWGQGTTVTVSSGGGGSGGGGSGGGGSGGGGSDIQMTQSPSSLSASVGDRVTITCRASKSISKYLAWYQQKPGKAPKLLIHSGSSLESGVPSRFSGSGSGTEFTLTISSLQPDDFATYYCQQHIEYPWTFGQGTKVEIKEPKSSDKTHTCPPCPAPPAAAPSVFLFPPKPKDTLMISRTPEVTCVVVDVSHEDPEVKFNWYVDGVEVHNAKTKPREEQYNSTYRVVSVLTVLHQDWLNGKEYKCAVSNKALPAPIEKTISKAKGQPREPQVYTLPPSRDELTKNQVSLSCAVKGFYPSDIAVEWESNGQPENNYKTTPPVLDSDGSFFLVSKLTVDKSRWQQGNVFSCSVMHEALHNRFTQKSLSLSPGGGGSPSQVQLVQSGAEVKKPGASVKVSCKASGYTFTRSTMHWVRQAPGQGLEWIGYINPSSAYTNYAQKFQGRVTLTADKSTSTAYMELSSLRSEDTAVYYCASPQVHYDYNGFPYWGQGTLVTVSSGGGGSGGGGSGGGGSGGGGSDIQMTQSPSSLSASVGDRVTITCRASSSVSYMNWYQQKPGKAPKRWIYDSSKLASGVPSRFSGSGSGTDFTLTISSLQPEDFATYYCQQWSRNPPTFGQGTKVEIKRS
cytotoxic activity [1]: ~10 fold
